The chains are these.
B1: peptide RLLJPLSSA (SEQ ID NO 179) (peptide)
peptide: RLL[pS]PLSSA
notes: Printed with J for phosphoserine; the plain residue at position 4 is serine

This note sets out measurements from patent US20160347808A1 (IMMATICS BIOTECHNOLOGIES, published 2016).

Square brackets hold non-standard residues; d marks the D form. Ends that are not written are not given here. pS = N[C@@H](COP(=O)(O)O)C(=O)O

The target of the experiment is T1, HLA-A*02:01 (peptide-receptive MHC class I monomer from UV-ligand exchange) (human).
T1 construct: Monomers were captured on streptavidin-coated plates
The experiment is described as follows: UV-exchange ELISA (anti-b2m); exchange yield grade: + >=10%, ++ >=20%, +++ >=50%, ++++ >=75%. An excerpt:
Candidate peptides for T cell based therapies according to the present invention were further tested for their MHC binding capacity (affinity). The individual peptide-MHC complexes were produced by UV-ligand exchange, where a UV-sensitive peptide is cleaved upon UV-irradiation, and exchanged with the peptide of interest as analyzed. Only peptide candidates that can effectively bind and stabilize the peptide-receptive MHC molecules prevent dissociation of the MHC complexes. To determine the yield of the exchange reaction, an ELISA was performed based on the detection of the light chain (β2m) of stabilized MHC complexes. The assay was performed as generally described in Rodenko et al. (Rodenko et al., 2006).
96 well MAXISorp plates (NUNC) were coated over night with 2 ug/ml streptavidin in PBS at room temperature, washed 4× and blocked for 1 h at 37° C. in 2% BSA containing blocking buffer. Refolded HLA-A*02:01/MLA-001 monomers served as standards, covering the range of 15-500 ng/ml. Peptide-MHC monomers of the UV-exchange reaction were diluted 100 fold in blocking buffer. Samples were incubated for 1 h at 37° C., washed four times, incubated with 2 ug/ml HRP conjugated anti-β2m for 1 h at 37° C., washed again and detected with TMB solution that is stopped with […]. Absorption was measured at 450 nm. Candidate peptides that show a high exchange yield (preferably higher than 50%, most preferred higher than 75%) are generally preferred for a generation and production of antibodies or fragments thereof, and/or T cell receptors or fragments thereof, as they show sufficient avidity to the MHC molecules and prevent dissociation of the MHC complexes.
(In general: ELISA stands for enzyme-linked immunosorbent assay.)
For the molecule ALLPRYFFL [peptide ALLPRYFFL (SEQ ID NO 2)], the peptide exchange yield was 20 to 50%.
Regarding GLLEARGILGL [peptide GLLEARGILGL (SEQ ID NO 166)], the peptide exchange yield is 50 to 75%.
As for AISEVIGKITA [peptide AISEVIGKITA (SEQ ID NO 189)], the figure is 50 to 75%.
For the molecule KLLEFDQLQL [peptide KLLEFDQLQL (SEQ ID NO 160)], the peptide exchange yield was 50 to 75%.
As for GLASKENFSNVSL [peptide GLASKENFSNVSL (SEQ ID NO 26)], the figure is 20 to 50%.
As to ILLDDNMQIRL [peptide ILLDDNMQIRL (SEQ ID NO 174)], the peptide exchange yield was at least 75%.
Regarding VLYTGVVRV [peptide VLYTGVVRV (SEQ ID NO 185)], the peptide exchange yield lay within 50 to 75%.
As for SLADRLIGV [peptide SLADRLIGV (SEQ ID NO 25)], the figure is at least 75%.
RLQETEGMVAV [peptide RLQETEGMVAV (SEQ ID NO 171)]: the peptide exchange yield was in the range of 20 to 50%.
Turning to VLVDDDGIKVV [peptide VLVDDDGIKVV (SEQ ID NO 159)], the peptide exchange yield was in the range of 20 to 50%.
As for RLLHEVQEL [peptide RLLHEVQEL (SEQ ID NO 163)], the figure is 50 to 75%; as for YLAHFIEGL [peptide YLAHFIEGL (SEQ ID NO 169)], 50 to 75%.
Regarding LLADEDSSYL [peptide LLADEDSSYL (SEQ ID NO 27)], the peptide exchange yield is 20 to 50%.
Turning to LLLDTVTMQV [peptide LLLDTVTMQV (SEQ ID NO 172)], the peptide exchange yield lay in the range of 50 to 75%.
As for TLLGGKEAQALGV [peptide TLLGGKEAQALGV (SEQ ID NO 175)], the figure is 50 to 75%.
As to KMLDEILLQL [peptide KMLDEILLQL (SEQ ID NO 164)], the peptide exchange yield is at least 75%.
For ALLQGAIESV [peptide ALLQGAIESV (SEQ ID NO 177)] the value was 50 to 75%; for QMLDVAIRV [peptide QMLDVAIRV (SEQ ID NO 29)], 50 to 75%.
On to RLYTKLLNEA [peptide RLYTKLLNEA (SEQ ID NO 19)], for which the peptide exchange yield lay in the range of 50 to 75%.
Turning to VLVDQSWVL [peptide VLVDQSWVL (SEQ ID NO 16)], the peptide exchange yield fell in the range of 50 to 75%.
As for AMAEMVLQV [peptide AMAEMVLQV (SEQ ID NO 190)], the figure is 50 to 75%.
As for SVIDHIHLISV [peptide SVIDHIHLISV (SEQ ID NO 167)], the peptide exchange yield fell in the range of 50 to 75%.
For the molecule ALAGGITMV [peptide ALAGGITMV (SEQ ID NO 170)], the peptide exchange yield is 50 to 75%.
For GLIDEVMVL (also called CYP2W1-001) [peptide GLIDEVMVL (SEQ ID NO 22)] the value was 50 to 75%.
For NLFDLGGQYLRV [peptide NLFDLGGQYLRV (SEQ ID NO 181)], the peptide exchange yield was in the range of 50 to 75%.
For SLLDENNVSSYL [peptide SLLDENNVSSYL (SEQ ID NO 184)] the value was 50 to 75%; for QLFSEIHNL [peptide QLFSEIHNL (SEQ ID NO 191)], at least 75%; for RLLDFPEAMVL [peptide RLLDFPEAMVL (SEQ ID NO 165)], at least 75%.
On to YLFREPATI [peptide YLFREPATI (SEQ ID NO 178)], for which the peptide exchange yield fell in the range of 20 to 50%.
Turning to RTLDKVLEV [peptide RTLDKVLEV (SEQ ID NO 176)], the peptide exchange yield was in the range of 20 to 50%.
For ALAAARVEL [peptide ALAAARVEL (SEQ ID NO 17)] the value was 50 to 75%.
For the molecule GLIRFPLMTI [peptide GLIRFPLMTI (SEQ ID NO 168)], the peptide exchange yield was 50 to 75%.
FLVDGPRVQL [peptide FLVDGPRVQL (SEQ ID NO 188)]: the peptide exchange yield was 50 to 75%.
As for FLDANGHFV [peptide FLDANGHFV (SEQ ID NO 23)], the figure is 50 to 75%; as for FLKNELDNV [peptide FLKNELDNV (SEQ ID NO 161)], 50 to 75%.
As for ALTEIQEFI [peptide ALTEIQEFI (SEQ ID NO 28)], the figure is at least 75%; as for KMSEKILLL [peptide KMSEKILLL (SEQ ID NO 186)], 50 to 75%; as for VLIDHRWVL [peptide VLIDHRWVL (SEQ ID NO 21)], 50 to 75%.
Turning to TLQEVVTGV [peptide TLQEVVTGV (SEQ ID NO 183)], the peptide exchange yield is 50 to 75%.
For B1 the value was 50 to 75%.
As for GLHNVVYGI [peptide GLHNVVYGI (SEQ ID NO 187)], the figure is 50 to 75%; as for KLGDLMVLL [peptide KLGDLMVLL (SEQ ID NO 173)], 50 to 75%; as for KLMDYIDEL [peptide KLMDYIDEL (SEQ ID NO 162)], 50 to 75%.
On to VLDGVLMEL [peptide VLDGVLMEL (SEQ ID NO 24)], for which the peptide exchange yield fell in the range of 50 to 75%.
Take FLSSLKGGLL [peptide FLSSLKGGLL (SEQ ID NO 18)]: the peptide exchange yield lay within 50 to 75%.
As for GLLDPSVFHV [peptide GLLDPSVFHV (SEQ ID NO 158)], the figure is 50 to 75%; as for RLIPDTLYSV [peptide RLIPDTLYSV (SEQ ID NO 3)], at least 75%.
As to YLKDGDVML [peptide YLKDGDVML (SEQ ID NO 20)], the peptide exchange yield fell in the range of 50 to 75%.
Consider SLNKWIFTV [peptide SLNKWIFTV (SEQ ID NO 182)], for which the peptide exchange yield was at least 75%.
